Test results taken from the supplement of paper PMC10567573.

B1: SNAP91 (parent)
chain: FAQPMMRPPFGAAAVPGTQLSPSP

Variants of: B1
Assay: protein stability index of a GFP-peptide fusion (GPS, HEK-293T) (PSI 1-6); higher = more stable
Conditions: c terminus: a fixed tail appended
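Note: lentivirally expressed fusions sorted by FACS into six bins by GFP to DsRed ratio, PSI derived from sequencing read proportions per bin multiplied by bin number.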

| Variant | protein stability index |
| --- | --- |
| FAQPMMRPPFGHAAVPGTQLSPSP [A12H] | 2.96 |
| FAQPMMRPPFGVAAVPGTQLSPSP [A12V] | 2.55 |
| FAQPMMRPPFGMAAVPGTQLSPSP [A12M] | 3.03 |
| FAQPMMRPPFGCAAVPGTQLSPSP [A12C] | 2.46 |
| FAQPMMRPPFGNAAVPGTQLSPSP [A12N] | 3.54 |
| FAQPMMRPPFGIAAVPGTQLSPSP [A12I] | 2.58 |
| FAQPMMRPPFGDAAVPGTQLSPSP [A12D] | 3.82 |
| FAQPMMRPPFGAARVPGTQLSPSP [A14R] | 3.31 |
| FAQPMMRPPFGAADVPGTQLSPSP [A14D] | 2.79 |
| FAQPMMRPPFGAATVPGTQLSPSP [A14T] | 2.45 |
| FAQPMMRPPFGAAVVPGTQLSPSP [A14V] | 2.61 |
| FAQPMMRPPFGAAYVPGTQLSPSP [A14Y] | 3.04 |
| FAQPMMRPPFGAAMVPGTQLSPSP [A14M] | 3.03 |
| FAQPMMRPPFGAAGVPGTQLSPSP [A14G] | 2.8 |
| FAQPMMRPPFGAALVPGTQLSPSP [A14L] | 2.78 |
| FAQPMMRPPFGAASVPGTQLSPSP [A14S] | 2.87 |
| FAQPMMRPPFGAAFVPGTQLSPSP [A14F] | 2.65 |
| FAQPMMRPPFGAAWVPGTQLSPSP [A14W] | 1.81 |
| FAQPMMRPPFGAAQVPGTQLSPSP [A14Q] | 3.25 |
| FAQPMMRPPFGAACVPGTQLSPSP [A14C] | 2.81 |
| FAQPMMRPPFGAAIVPGTQLSPSP [A14I] | 2.82 |
| FAQPMMRPPFGAAHVPGTQLSPSP [A14H] | 2.99 |
| FAQPMMRPPFGAANVPGTQLSPSP [A14N] | 3.17 |
| FAQPMMRPPFGAAPVPGTQLSPSP [A14P] | 3.08 |

| Variant | protein stability index |
| --- | --- |
| FAQPMMRPPFGAAEVPGTQLSPSP [A14E] | 3.01 |
| FAQPMMRPPFGAAKVPGTQLSPSP [A14K] | 3.21 |
| FAQPMNRPPFGAAAVPGTQLSPSP [M6N] | 3.19 |
| FAQPMTRPPFGAAAVPGTQLSPSP [M6T] | 3.68 |
| FAQPMERPPFGAAAVPGTQLSPSP [M6E] | 3.6 |
| FAQPMHRPPFGAAAVPGTQLSPSP [M6H] | 4.01 |
| FAQPMSRPPFGAAAVPGTQLSPSP [M6S] | 3.1 |
| FAQPMPRPPFGAAAVPGTQLSPSP [M6P] | 3.62 |
| FAQPMWRPPFGAAAVPGTQLSPSP [M6W] | 2.61 |
| FAQPMVRPPFGAAAVPGTQLSPSP [M6V] | 3.87 |
| FAQPMCRPPFGAAAVPGTQLSPSP [M6C] | 2.76 |
| FAQPMRRPPFGAAAVPGTQLSPSP [M6R] | 3.1 |
| FAQPMLRPPFGAAAVPGTQLSPSP [M6L] | 3.13 |
| FAQPMDRPPFGAAAVPGTQLSPSP [M6D] | 3.46 |
| FAQPMARPPFGAAAVPGTQLSPSP [M6A] | 2.89 |
| FAQPMIRPPFGAAAVPGTQLSPSP [M6I] | 3.77 |
| FAQPMGRPPFGAAAVPGTQLSPSP [M6G] | 3.01 |
| FAQPMKRPPFGAAAVPGTQLSPSP [M6K] | 3.65 |
| FAQPMQRPPFGAAAVPGTQLSPSP [M6Q] | 3.9 |
| FAQPMYRPPFGAAAVPGTQLSPSP [M6Y] | 2.88 |
| FAQPMFRPPFGAAAVPGTQLSPSP [M6F] | 3.14 |
| FAQPMMRPPFGAVAVPGTQLSPSP [A13V] | 2.73 |
| FAQPMMRPPFGAGAVPGTQLSPSP [A13G] | 3.44 |
| FAQPMMRPPFGADAVPGTQLSPSP [A13D] | 3.38 |

| Variant | protein stability index |
| --- | --- |
| FAQPMMRPPFGACAVPGTQLSPSP [A13C] | 2.39 |
| FAQPMMRPPFGARAVPGTQLSPSP [A13R] | 3.65 |
| FAQPMMRPPFGAWAVPGTQLSPSP [A13W] | 1.62 |
| FAQPMMRPPFGANAVPGTQLSPSP [A13N] | 3.46 |
| FAQPMMRPPFGASAVPGTQLSPSP [A13S] | 3.25 |
| FAQPMMRPPFGAQAVPGTQLSPSP [A13Q] | 3.32 |
| FAQPMMRPPFGALAVPGTQLSPSP [A13L] | 2.63 |
| FAQPMMRPPFGAIAVPGTQLSPSP [A13I] | 2.54 |
| FAQPMMRPPFGAKAVPGTQLSPSP [A13K] | 3.13 |
| FAQPMMRPPFGAEAVPGTQLSPSP [A13E] | 3.24 |
| FAQPMMRPPFGAFAVPGTQLSPSP [A13F] | 3.13 |
| FAQPMMRPPFGATAVPGTQLSPSP [A13T] | 3.36 |
| FAQPMMRPPFGAPAVPGTQLSPSP [A13P] | 3.76 |
| FAQPMMRPPFGAYAVPGTQLSPSP [A13Y] | 2.75 |
| FAQPMMRPPFGAHAVPGTQLSPSP [A13H] | 3.13 |
| FAQPMMRPPFGAMAVPGTQLSPSP [A13M] | 2.79 |
| FAQPMMRPIFGAAAVPGTQLSPSP [P9I] | 2.57 |
| FAQPMMRPNFGAAAVPGTQLSPSP [P9N] | 3.14 |
| FAQPMMRPWFGAAAVPGTQLSPSP [P9W] | 1.91 |
| FAQPMMRPHFGAAAVPGTQLSPSP [P9H] | 3.52 |
| FAQPMMRPVFGAAAVPGTQLSPSP [P9V] | 3.26 |
| FAQPMMRPKFGAAAVPGTQLSPSP [P9K] | 2.71 |
| FAQPMMRPQFGAAAVPGTQLSPSP [P9Q] | 3.91 |
| FAQPMMRPMFGAAAVPGTQLSPSP [P9M] | 3.1 |

| Variant | protein stability index |
| --- | --- |
| FAQPMMRPRFGAAAVPGTQLSPSP [P9R] | 3.77 |
| FAQPMMRPTFGAAAVPGTQLSPSP [P9T] | 3.59 |
| FAQPMMRPEFGAAAVPGTQLSPSP [P9E] | 3.94 |
| FAQPMMRPAFGAAAVPGTQLSPSP [P9A] | 3.51 |
| FAQPMMRPYFGAAAVPGTQLSPSP [P9Y] | 2.34 |
| FAQPMMRPSFGAAAVPGTQLSPSP [P9S] | 3.75 |
| FAQPMMRPGFGAAAVPGTQLSPSP [P9G] | 3.45 |
| FAQPMMRPLFGAAAVPGTQLSPSP [P9L] | 1.91 |
| FAQPMMRPFFGAAAVPGTQLSPSP [P9F] | 1.63 |
| FAQPMMRPDFGAAAVPGTQLSPSP [P9D] | 4.04 |
| FAQPMMRPCFGAAAVPGTQLSPSP [P9C] | 3.06 |
| FAQPMMRPPFGAAAFPGTQLSPSP [V15F] | 2.78 |
| FAQPMMRPPFGAAAGPGTQLSPSP [V15G] | 2.96 |
| FAQPMMRPPFGAAAAPGTQLSPSP [V15A] | 3.54 |
| FAQPMMRPPFGAAAHPGTQLSPSP [V15H] | 3.28 |
| FAQPMMRPPFGAAAMPGTQLSPSP [V15M] | 3.01 |
| FAQPMMRPPFGAAAIPGTQLSPSP [V15I] | 2.82 |
| FAQPMMRPPFGAAAKPGTQLSPSP [V15K] | 2.92 |
| FAQPMMRPPFGAAALPGTQLSPSP [V15L] | 3.08 |
| FAQPMMRPPFGAAAEPGTQLSPSP [V15E] | 2.98 |
| FAQPMMRPPFGAAADPGTQLSPSP [V15D] | 2.73 |
| FAQPMMRPPFGAAACPGTQLSPSP [V15C] | 3.21 |
